Measured values from publication PMC5923501.

How the values were obtained:
Assay in all cases: flow cytometry on cells; 5 × 10^6 CHO745 cells expressing the receptor or chimera incubated with 10 μg of Alexa fluorophore conjugated eE2 in 600 μL PBS at room temperature for 2 h, washed three times with PBS; read-out MFI of Alexa-647; one representative experiment of three
[1] = molecular target: hCD81 LEL-hCD9 backbone chimera (human) (UniProt P60033)
[2] = molecular target: hCD81 LEL-ceTSP9 backbone chimera (Caenorhabditis elegans | human) (UniProt P60033)
[3] = molecular target: scavenger receptor type B class I (SR-BI) (UniProt Q8WTV0)
UniProt Q8WTV0, sequence (Q8WTV0 whole entry): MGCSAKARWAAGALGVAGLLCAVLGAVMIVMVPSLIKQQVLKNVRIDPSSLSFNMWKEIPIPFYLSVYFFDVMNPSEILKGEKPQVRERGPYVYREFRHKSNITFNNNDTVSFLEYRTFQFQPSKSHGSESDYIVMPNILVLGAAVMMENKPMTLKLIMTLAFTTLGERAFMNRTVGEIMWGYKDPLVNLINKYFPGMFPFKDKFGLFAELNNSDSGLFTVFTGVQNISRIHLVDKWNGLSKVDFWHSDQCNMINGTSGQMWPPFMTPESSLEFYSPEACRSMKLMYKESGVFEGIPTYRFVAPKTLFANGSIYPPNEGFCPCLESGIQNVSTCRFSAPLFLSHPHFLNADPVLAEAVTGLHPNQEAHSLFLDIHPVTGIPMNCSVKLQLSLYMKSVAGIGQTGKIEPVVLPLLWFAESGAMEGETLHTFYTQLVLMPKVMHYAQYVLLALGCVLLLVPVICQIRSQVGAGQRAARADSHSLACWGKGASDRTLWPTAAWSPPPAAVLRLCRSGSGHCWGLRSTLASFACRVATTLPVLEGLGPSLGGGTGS

| Substance | fold change of binding against wildtype J6 eE2 [1] | MFI [2] | MFI [3] |
| --- | --- | --- | --- |
| ΔHVR1 J6 eE2 (domain or fragment) | 3 fold | – | – |
| HCV E2 ectodomain (eE2) from genotype 2a (strain J6) (from UniProt P26660 384-729) (domain or fragment) | – | 15000 | 65000 |
| HCV E2 ectodomain (eE2) from genotype 1a (strain H77) (from UniProt P27958 384-725) (domain or fragment) | – | 20000 | 22000 |
